From PMC9482650, “Quantitative fragmentomics allow affinity mapping of interactomes” (Nature Communications, 2022)

target: T1, PDZD2_4, O15018; assay: holdup assay; design: key: below the threshold = too weak to quantify, mostly under pKd 3.1 to 4; settings: plain residues with an end cap or a label only (N-terminal biotin on a linker: ttds)
T1 sequence (O15018 723-823, limits assumed, looked up): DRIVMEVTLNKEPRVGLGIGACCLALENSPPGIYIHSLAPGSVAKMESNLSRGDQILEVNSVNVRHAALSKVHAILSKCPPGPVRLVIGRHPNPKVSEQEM

Binder | pKd
KLVIKTETTV [RASSF6, Q6ZTQ3] | below the threshold

target: DVL2, O14641; assay: holdup assay; design: key: below the threshold = too weak to quantify, mostly under pKd 3.1 to 4; settings: plain residues with an end cap or a label only (N-terminal biotin on a linker: ttds)
Sequence (O14641 260-359): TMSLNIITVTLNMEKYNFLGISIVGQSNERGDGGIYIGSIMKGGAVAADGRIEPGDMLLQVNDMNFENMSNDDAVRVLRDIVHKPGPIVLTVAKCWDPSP

Binder | pKd
KLVIKTETTV [RASSF6, Q6ZTQ3] | below the threshold

target: TJP1_1, Q07157; assay: holdup assay; design: key: below the threshold = too weak to quantify, mostly under pKd 3.1 to 4; settings: plain residues with an end cap or a label only (N-terminal biotin on a linker: ttds)
Sequence (Q07157 18-120): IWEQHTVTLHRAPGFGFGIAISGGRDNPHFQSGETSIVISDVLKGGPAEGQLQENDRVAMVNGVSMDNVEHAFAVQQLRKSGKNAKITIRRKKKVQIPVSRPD

Binder | pKd
KLVIKTETTV [RASSF6, Q6ZTQ3] | below the threshold

target: PARD3B_3, Q8TEW8; assay: holdup assay; design: key: below the threshold = too weak to quantify, mostly under pKd 3.1 to 4; settings: plain residues with an end cap or a label only (N-terminal biotin on a linker: ttds)
Sequence (Q8TEW8 490-594): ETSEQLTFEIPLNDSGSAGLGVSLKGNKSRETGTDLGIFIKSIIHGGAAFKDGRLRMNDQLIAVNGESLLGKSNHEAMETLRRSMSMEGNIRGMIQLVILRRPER

Binder | pKd
KLVIKTETTV [RASSF6, Q6ZTQ3] | below the threshold

target: MAGIX, Q9H6Y5; assay: holdup assay; design: key: below the threshold = too weak to quantify, mostly under pKd 3.1 to 4; settings: plain residues with an end cap or a label only (N-terminal biotin on a linker: ttds)
Sequence (Q9H6Y5 118-211): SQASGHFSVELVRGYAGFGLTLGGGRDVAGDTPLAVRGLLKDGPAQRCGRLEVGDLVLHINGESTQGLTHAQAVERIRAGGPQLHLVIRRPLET

Binder | pKd
KLVIKTETTV [RASSF6, Q6ZTQ3] | below the threshold

target: T2, PDLIM3, Q53GG5; assay: holdup assay; design: key: below the threshold = too weak to quantify, mostly under pKd 3.1 to 4; settings: plain residues with an end cap or a label only (N-terminal biotin on a linker: ttds)
T2 sequence (Q53GG5 1-94, limits assumed, looked up): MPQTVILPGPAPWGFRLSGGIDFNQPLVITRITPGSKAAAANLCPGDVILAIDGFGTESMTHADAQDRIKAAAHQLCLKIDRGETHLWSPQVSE

Binder | pKd
KLVIKTETTV [RASSF6, Q6ZTQ3] | below the threshold

target: RIMS2, Q9UQ26; assay: holdup assay; design: key: below the threshold = too weak to quantify, mostly under pKd 3.1 to 4; settings: plain residues with an end cap or a label only (N-terminal biotin on a linker: ttds)
Sequence (Q9UQ26 637-758): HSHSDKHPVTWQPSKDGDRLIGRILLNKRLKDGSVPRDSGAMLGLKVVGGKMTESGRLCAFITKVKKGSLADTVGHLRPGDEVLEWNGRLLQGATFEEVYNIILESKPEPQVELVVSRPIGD

Binder | pKd
KLVIKTETTV [RASSF6, Q6ZTQ3] | below the threshold

target: T3, MPDZ_13, O75970; assay: holdup assay; design: key: below the threshold = too weak to quantify, mostly under pKd 3.1 to 4; settings: plain residues with an end cap or a label only (N-terminal biotin on a linker: ttds)
T3 sequence (O75970 1982-2070, limits assumed, looked up): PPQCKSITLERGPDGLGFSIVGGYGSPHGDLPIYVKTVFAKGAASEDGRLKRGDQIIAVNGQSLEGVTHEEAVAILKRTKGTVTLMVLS

Binder | pKd
KLVIKTETTV [RASSF6, Q6ZTQ3] | below the threshold

target: T4, NHERF1_1, O14745; assay: holdup assay; design: key: below the threshold = too weak to quantify, mostly under pKd 3.1 to 4; settings: plain residues with an end cap or a label only (N-terminal biotin on a linker: ttds)
T4 sequence (O14745 9-104, limits assumed, looked up): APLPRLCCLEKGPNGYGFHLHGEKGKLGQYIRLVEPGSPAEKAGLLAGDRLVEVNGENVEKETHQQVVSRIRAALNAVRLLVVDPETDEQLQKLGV

Binder | pKd
KLVIKTETTV [RASSF6, Q6ZTQ3] | below the threshold

target: T5, PDZD4, Q76G19; assay: holdup assay; design: key: below the threshold = too weak to quantify, mostly under pKd 3.1 to 4; settings: plain residues with an end cap or a label only (N-terminal biotin on a linker: ttds)
T5 sequence (Q76G19 125-224, limits assumed, looked up): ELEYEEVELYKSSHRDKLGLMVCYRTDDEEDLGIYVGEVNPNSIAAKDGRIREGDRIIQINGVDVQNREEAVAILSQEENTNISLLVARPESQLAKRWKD

Binder | pKd
KLVIKTETTV [RASSF6, Q6ZTQ3] | below the threshold

target: T6, SHANK3, Q9BYB0; assay: holdup assay; design: key: below the threshold = too weak to quantify, mostly under pKd 3.1 to 4; settings: plain residues with an end cap or a label only (N-terminal biotin on a linker: ttds)
T6 sequence (Q9BYB0 641-750, limits assumed, looked up): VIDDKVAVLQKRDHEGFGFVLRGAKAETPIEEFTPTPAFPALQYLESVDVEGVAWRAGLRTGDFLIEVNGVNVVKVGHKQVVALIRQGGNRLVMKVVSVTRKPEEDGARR

Binder | pKd
KLVIKTETTV [RASSF6, Q6ZTQ3] | below the threshold

target: IL16_2, Q14005; assay: holdup assay; design: key: below the threshold = too weak to quantify, mostly under pKd 3.1 to 4; settings: plain residues with an end cap or a label only (N-terminal biotin on a linker: ttds)
Sequence (Q14005 350-450): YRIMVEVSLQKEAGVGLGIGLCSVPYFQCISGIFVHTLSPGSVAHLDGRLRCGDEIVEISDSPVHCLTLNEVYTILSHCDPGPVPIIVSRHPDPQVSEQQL

Binder | pKd
KLVIKTETTV [RASSF6, Q6ZTQ3] | 4.38

target: T7, PDZD2_1, O15018; assay: holdup assay; design: key: below the threshold = too weak to quantify, mostly under pKd 3.1 to 4; settings: plain residues with an end cap or a label only (N-terminal biotin on a linker: ttds)
T7 sequence (O15018 80-192, limits assumed, looked up): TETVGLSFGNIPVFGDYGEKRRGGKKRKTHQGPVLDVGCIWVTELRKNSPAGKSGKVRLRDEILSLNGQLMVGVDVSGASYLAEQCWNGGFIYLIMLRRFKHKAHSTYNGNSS

Binder | pKd
KLVIKTETTV [RASSF6, Q6ZTQ3] | below the threshold

target: T8, DVL1, O14640; assay: holdup assay; design: key: below the threshold = too weak to quantify, mostly under pKd 3.1 to 4; settings: plain residues with an end cap or a label only (N-terminal biotin on a linker: ttds)
T8 sequence (O14640 246-333, limits assumed, looked up): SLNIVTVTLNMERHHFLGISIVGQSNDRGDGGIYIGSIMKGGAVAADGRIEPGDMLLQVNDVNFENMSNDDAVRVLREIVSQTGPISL

Binder | pKd
KLVIKTETTV [RASSF6, Q6ZTQ3] | below the threshold

target: T9, LNX2_4, Q8N448; assay: holdup assay; design: key: below the threshold = too weak to quantify, mostly under pKd 3.1 to 4; settings: plain residues with an end cap or a label only (N-terminal biotin on a linker: ttds)
T9 sequence (Q8N448 595-690, limits assumed, looked up): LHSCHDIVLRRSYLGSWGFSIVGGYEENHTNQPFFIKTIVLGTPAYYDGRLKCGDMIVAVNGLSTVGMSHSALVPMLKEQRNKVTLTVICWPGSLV

Binder | pKd
KLVIKTETTV [RASSF6, Q6ZTQ3] | below the threshold

target: T10, PDZD2_5, O15018; assay: holdup assay; design: key: below the threshold = too weak to quantify, mostly under pKd 3.1 to 4; settings: plain residues with an end cap or a label only (N-terminal biotin on a linker: ttds)
T10 sequence (O15018 2617-2716, limits assumed, looked up): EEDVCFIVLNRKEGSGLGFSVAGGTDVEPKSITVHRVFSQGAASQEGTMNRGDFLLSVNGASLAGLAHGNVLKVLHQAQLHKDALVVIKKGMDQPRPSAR

Binder | pKd
KLVIKTETTV [RASSF6, Q6ZTQ3] | below the threshold

target: MAGI3_3, Q5TCQ9; assay: holdup assay; design: key: below the threshold = too weak to quantify, mostly under pKd 3.1 to 4; settings: plain residues with an end cap or a label only (N-terminal biotin on a linker: ttds)
Sequence (Q5TCQ9 572-655): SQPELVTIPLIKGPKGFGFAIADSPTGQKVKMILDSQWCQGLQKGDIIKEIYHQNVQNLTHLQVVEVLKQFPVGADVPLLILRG

Binder | pKd
KLVIKTETTV [RASSF6, Q6ZTQ3] | below the threshold

target: T11, SNTB2, Q13425; assay: holdup assay; design: key: below the threshold = too weak to quantify, mostly under pKd 3.1 to 4; settings: plain residues with an end cap or a label only (N-terminal biotin on a linker: ttds)
T11 sequence (Q13425 110-208, limits assumed, looked up): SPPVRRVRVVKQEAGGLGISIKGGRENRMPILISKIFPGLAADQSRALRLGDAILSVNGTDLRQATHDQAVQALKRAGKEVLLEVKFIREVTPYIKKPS

Binder | pKd
KLVIKTETTV [RASSF6, Q6ZTQ3] | 4.2

target: NHERF2_1, Q15599; assay: holdup assay; design: key: below the threshold = too weak to quantify, mostly under pKd 3.1 to 4; settings: plain residues with an end cap or a label only (N-terminal biotin on a linker: ttds)
Sequence (Q15599 9-91): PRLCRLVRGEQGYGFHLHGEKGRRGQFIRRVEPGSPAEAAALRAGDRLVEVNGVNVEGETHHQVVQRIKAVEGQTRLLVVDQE

Binder | pKd
KLVIKTETTV [RASSF6, Q6ZTQ3] | below the threshold

target: T12, GRIP1_1, Q9Y3R0; assay: holdup assay; design: key: below the threshold = too weak to quantify, mostly under pKd 3.1 to 4; settings: plain residues with an end cap or a label only (N-terminal biotin on a linker: ttds)
T12 sequence (Q9Y3R0 48-146, limits assumed, looked up): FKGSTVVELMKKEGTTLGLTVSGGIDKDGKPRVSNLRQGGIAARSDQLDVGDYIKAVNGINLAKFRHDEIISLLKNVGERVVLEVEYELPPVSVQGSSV

Binder | pKd
KLVIKTETTV [RASSF6, Q6ZTQ3] | below the threshold

target: T13, TJP3_1, O95049; assay: holdup assay; design: key: below the threshold = too weak to quantify, mostly under pKd 3.1 to 4; settings: plain residues with an end cap or a label only (N-terminal biotin on a linker: ttds)
T13 sequence (O95049 6-103, limits assumed, looked up): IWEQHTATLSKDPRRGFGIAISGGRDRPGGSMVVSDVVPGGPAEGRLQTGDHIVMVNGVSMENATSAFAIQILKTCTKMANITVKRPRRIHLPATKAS

Binder | pKd
KLVIKTETTV [RASSF6, Q6ZTQ3] | below the threshold

target: T14, MPDZ_6, O75970; assay: holdup assay; design: key: below the threshold = too weak to quantify, mostly under pKd 3.1 to 4; settings: plain residues with an end cap or a label only (N-terminal biotin on a linker: ttds)
T14 sequence (O75970 1003-1099, limits assumed, looked up): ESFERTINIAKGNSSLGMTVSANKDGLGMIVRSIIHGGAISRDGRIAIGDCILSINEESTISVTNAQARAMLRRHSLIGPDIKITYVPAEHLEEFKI

Binder | pKd
KLVIKTETTV [RASSF6, Q6ZTQ3] | below the threshold

target: RGS3, P49796-9; assay: holdup assay; design: key: below the threshold = too weak to quantify, mostly under pKd 3.1 to 4; settings: plain residues with an end cap or a label only (N-terminal biotin on a linker: ttds)
Sequence (P49796 other isoform, or with tags, fused parts or gaps): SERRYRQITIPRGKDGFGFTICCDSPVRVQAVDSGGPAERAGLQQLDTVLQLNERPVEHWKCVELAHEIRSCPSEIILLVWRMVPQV

Binder | pKd
KLVIKTETTV [RASSF6, Q6ZTQ3] | below the threshold
